Series [1] is described as follows: Phosphatase coupled kinase assay, ERK1 specific activity. It counts as biochemical. Conditions: 4 mM ATP, 4 mM MBP peptide. On the procedure: (§1) The kinase reactions were carried out in 50 μL of kinase assay buffer including 25 mM Tris, 150 mM NaCl, 5 mM MgCl2, and 5 mM CaCl2 at pH 7.5 in a 96 well plate at room temperature. Each reaction was stopped with 30 μL of Malachite Reagent A and 100 μL of water. The color was developed with 30 μL Malachite Reagent B. The plate was read at 620 nm with a multi-well plate reader. If the predicted phosphate content in the reaction was above 4,000 pmol, the reaction was diluted before phosphate detection.
A series of reactions were performed with extracellular signal-regulated kinase 1 (ERK1) as the kinase. Various amounts of ERK1 (0, 0.1, 0.2, 0.4 and 0.8 μg) were combined with 4 mM ATP, 4 mM MBP peptide acceptor substrate, and 0.2 μg CD39L2. […] The reactions were stopped after 20 minutes, the Malachite Green assay was performed as described above, and the OD was measured at 620 nm. The results are shown in FIG. 10, wherein the OD reading is plotted against the quantity of ERK1. This plot was then used to determine the specific activity of ERK1. The specific activity was calculated by first determining the slope of the curve (0.7728 OD/μg), which was then multiplied by a conversion factor (4081 pmol/OD) and divided by the reaction time (20 minutes) (0.7728 OD/μg×4081 pmol/OD/20 min=157.69 pmol/min/μg). The coupling efficiency of rhCD39L2 in 4 mM ATP was predicted to be 0.4 based on the data of Example 3 (FIG. 5). The specific activity of the ERK1 was then adjusted for the coupling efficiency and was calculated to be 394.22 pmol/min/μg. (157.69 pmol/min/μg/0.4=394.22 pmol/min/μg)

A short description of series [2]: ADP hydrolysis curve with increasing amounts of phosphatase, free phosphate by Malachite Green. The format is biochemical. The following applies: 5 minutes.
Description: The relative activity of the phosphatase on ADP and ATP can be measured by creating hydrolysis curves for ADP and ATP. For example, such hydrolysis curves may be created by performing a series of reactions separately combining set quantities of ADP or ATP with varying quantities of phosphatase and detecting the free phosphate produced. An example of such curves is described in Example 1 below. The resulting phosphate levels (or OD readings, which directly correspond to the phosphate levels) can be plotted against the amount of phosphatase used. The phosphate level or OD readings can be compared at the same quantity of the phosphatase to determine the relative activity of the phosphatase for ADP as compared to ATP. […] The amount of phosphatase to be used for kinase reactions is preferably selected from within the rapidly rising portion of the ADP hydrolysis curve. In addition, the relative activity of the phosphatase for ADP versus ATP is preferably compared within this rapidly rising portion of the hydrolysis curve, at or near the steepest portion of the curve. At phosphatase levels below this range, the generated signals are weak, while at phosphatase levels above this range, the ADP hydrolysis approaches completion, which could underestimate the activity of the phosphatase on ADP due to exhaustion of the substrate.
as §1
In this experiment, the relative activity of rhCD39L2 on ADP and ATP was determined. In a first series of reactions, 100 nmol of 2 mM ATP was combined with increasing amounts of rhCD39L2 (0.03125 μg, 0.0625 μg, 0.125 μg, 0.25 μg, 0.5 μg) for 20 minutes. Likewise in a second series of reactions, 100 nmol of 2 mM ADP was combined with the same increasing amounts of rhCD39L2 for 20 minutes. The reactions were stopped after 20 minutes and free phosphate was measured using the Malachite Green assay as described above.
The relative activity of recombinant mouse CD 39L2 (rmCD39L2) on ADP and ATP was determined in a series of reactions similar to Example 1. 100 nmol of 2 mM ATP was combined with increasing amounts of rmCD39L2 (0.03125 μg, […], 0.125 0.25 μg, 0.5 μg). Likewise in a second series of reactions, 100 nmol of 2 mM ADP was combined with the same increasing amounts of rmCD39L2. The reactions were stopped after 5 minutes and free phosphate was measured using the Malachite Green assay as described above.
The experiment of Example 1 was repeated using recombinant human CD39L4 (rhCD39L4). 100 nmol of ATP (2 mM) was combined with increasing amounts of rhCD39L4 (0.03125 μg, 0.0625 μg, 0.125 μg, 0.25 μg, 0.5 μg, 1.0 μg). Likewise in a second series of reactions, 100 nmol of ADP (2 mM) was combined with the same increasing amounts of rhCD39L4 for 5 minutes. The reactions were stopped after 5 minutes and free phosphate was measured using the Malachite Green assay as described above. […] As such, the necessary preference of the phosphatase for ADP as compared to ATP is present.

Series [3] in a line: Specific activity of the phosphatase (free phosphate released per time per amount). The format is biochemical. The text has this: Phosphatases used in embodiments of the invention have a high specific activity on ADP. The specific activity of the phosphatase used in the examples is the amount of free phosphate released from a substrate per unit time and per amount of phosphatase under a given set of conditions, and may be determined at the rising phase of an enzymatic dose curve, such as the hydrolysis curve as described above. In some embodiments, the phosphatase has a specific activity of greater than 100 pmol/min/μg under optimal conditions. The conditions may include optimal pH, salt concentrations, and the presence of any cofactor. In other embodiments, the phosphatase has a specific activity of greater than 1,000 pmol/min/μg. In still other embodiments, the phosphatase has a specific activity of greater than 20,000 pmol/min/μg. When phosphatases having lower specific activity are used, larger amounts of such phosphatases or longer reaction times may be used to achieve the same level of hydrolysis as can be achieved with a phosphatase having higher specific activity.

For series [4] the following is noted: enzyme as obtained from R&D Systems; cited from earlier work.

For “ERK1: extracellular signal-regulated kinase 1 from R&D Systems”, the “slope of the curve OD versus quantity of ERK1” value in series [1] (0.2 μg CD39L2, 20 minutes) amounted to 0.7728 OD/μg. Also, the “specific activity before coupling efficiency adjustment” value in series [1] (20 minutes) came to 157.69 pmol/min/µg. The “specific activity adjusted for the coupling efficiency” value in series [1] (coupling efficiency 0.4) came to 394.22 pmol/min/µg.

B1: rhCD39L4: recombinant human CD39L4 phosphatase (protein, UniProt O75356 25-428, looked up)
Nucleoside diphosphate …: NQQTWFEGIFLSSMCPINVSASTLYGIMFDAGSTGTRIHVYTFVQKMPGQLPILEGEVFDSVKPGLSAFVDQPKQGAETVQGLLEVAKDSIPRSHWKKTPVVLKATAGLRLLPEHKAKALLFEVKEIFRKSPFLVPKGSVSIMDGSDEGILAWVTVNFLTGQLHGHRQETVGTLDLGGASTQITFLPQFEKTLEQTPRGYLTSFEMFNSTYKLYTHSYLGFGLKAARLATLGALETEGTDGHTFRSACLPRWLEAEWIFGGVKYQYGGNQEGEVGFEPCYAEVLRVVRGKLHQPEEVQRGSFYAFSYYYDRAVDTDMIDYEKGGILKVEDFERKAREVCDNLENFTSGSPFLCMDLSYITALLKDGFGFADSTVLQLTKKVNNIETGWALGATFHLLQSLGISH
Turning to B1, the “level of activity compared with rhCD39L2” value in series [2] (Example 9, up to 1.0 μg) is listed as “lower level of activity than rhCD39L2”. Besides, in series [3], the “specific activity on ADP” value was > 1,000 pmol/min/μg.

B2: rmCD39L2: recombinant mouse CD39L2 phosphatase (protein, UniProt Q3U0P5 1-455, looked up)
Ectonucleoside triphosphate …: MRKIPNHGTLRMTKVAYPLGLCVGLFIYVAYIKWHRASAAQAFFTIAGAASGARWTQQAFSSPGSAARGHEVFYGIMFDAGSTGTRIHVFQFARPPGETPTLTHETFKALKPGLSAYADDVEKSAQGIQELLNVAKQHIPYDFWKATPLVLKATAGLRLLPGEKAQKLLQKVKEVFKASPFLVGDDCVSIMNGTDEGVSAWITVNFLTGSLKTPGSSSVGMLDLGGGSTQITFLPRVEGTLQASPPGHLTALQMFNRTYKLYSYSYLGLGLMSARLAILGGVEGKPAENDKELVSPCLSPRFRGEWEHAEVTYRISGQKAVGLYELCASRVSEVLRNKVHRTEEAQHVDFYAFSYYYDLAASFGLIDAEKGGSLVVGDFEIAAKYVCRTLETQPPSSPFACMDLTYISLLLHEFGFPGDKVLKLARKIDNVETSWALGAIFHYIDSLKRQKVPAL
On to B2, for which the “times greater activity with ADP than with ATP” value in series [2] (phosphatase at 0.25 μg) is 30-40 times. For the same molecule, the specific activity in series [4] is listed as > 100,000 pmol/min/μg.

Source of the values: patent US20140080161A1, “PHOSPHATASE COUPLED KINASE ASSAY” (RESEARCH AND DIAGNOSTIC SYSTEMS, INC., priority 2010, published 2014).
